This assay deals with ErbB4 on primary adult rat ventricular cardiomyocytes (rat) (UniProt Q62956). Kind of assay: cell-based or functional assay.
Chain of UniProt Q62956 (Q62956 26-1308): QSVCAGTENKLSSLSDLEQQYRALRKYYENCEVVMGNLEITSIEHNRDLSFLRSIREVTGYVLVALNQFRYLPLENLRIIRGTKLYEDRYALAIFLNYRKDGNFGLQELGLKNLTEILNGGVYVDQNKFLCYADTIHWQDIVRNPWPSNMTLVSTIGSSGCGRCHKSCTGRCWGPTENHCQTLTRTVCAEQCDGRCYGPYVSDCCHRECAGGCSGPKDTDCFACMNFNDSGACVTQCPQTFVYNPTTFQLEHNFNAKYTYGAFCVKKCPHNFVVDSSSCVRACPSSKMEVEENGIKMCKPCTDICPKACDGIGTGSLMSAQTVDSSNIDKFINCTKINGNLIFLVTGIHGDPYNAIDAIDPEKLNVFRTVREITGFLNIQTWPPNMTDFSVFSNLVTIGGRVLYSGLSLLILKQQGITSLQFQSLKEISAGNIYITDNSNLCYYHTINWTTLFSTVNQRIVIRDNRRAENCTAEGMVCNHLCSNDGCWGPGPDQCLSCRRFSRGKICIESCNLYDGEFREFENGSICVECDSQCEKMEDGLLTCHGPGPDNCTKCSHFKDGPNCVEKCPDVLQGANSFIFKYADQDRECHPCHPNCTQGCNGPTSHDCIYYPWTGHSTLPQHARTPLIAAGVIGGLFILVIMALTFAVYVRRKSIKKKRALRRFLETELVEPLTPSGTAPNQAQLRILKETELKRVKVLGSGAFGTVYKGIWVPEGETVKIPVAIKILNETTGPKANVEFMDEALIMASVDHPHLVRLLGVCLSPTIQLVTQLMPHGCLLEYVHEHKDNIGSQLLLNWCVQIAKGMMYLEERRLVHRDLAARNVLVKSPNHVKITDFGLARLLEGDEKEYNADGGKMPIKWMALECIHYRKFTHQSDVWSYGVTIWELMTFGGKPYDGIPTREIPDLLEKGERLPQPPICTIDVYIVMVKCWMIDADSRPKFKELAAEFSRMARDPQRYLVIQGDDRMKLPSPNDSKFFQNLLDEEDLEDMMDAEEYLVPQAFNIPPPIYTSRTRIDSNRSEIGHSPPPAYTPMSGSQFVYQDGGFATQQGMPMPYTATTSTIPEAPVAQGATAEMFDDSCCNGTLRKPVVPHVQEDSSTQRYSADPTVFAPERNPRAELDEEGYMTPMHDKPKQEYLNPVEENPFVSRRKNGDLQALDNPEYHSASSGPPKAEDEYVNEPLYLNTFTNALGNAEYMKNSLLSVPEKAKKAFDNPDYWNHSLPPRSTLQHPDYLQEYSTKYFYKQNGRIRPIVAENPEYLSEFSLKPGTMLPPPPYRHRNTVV

As for “NRG1 (EGF-like domain, amino acids 176-246), R&D Systems (from UniProt Q02297-11 121-191) (ligand)”, the half-maximal stimulation EC50 of NRG1-induced DNA synthesis (BrdU uptake) in primary adult rat ventricular cardiomyocytes is 0.04 nM.
